Article PMC4365668, “The zinc finger proteins ZNF644 and WIZ regulate the G9a/GLP complex for gene repression”

B1: ZNF644 WT DNA target (dsDNA)
DNA 1: GAGTAAGATCATGCCACTGGGAATCATCGAACACAGAGTGAGGCTGGG
DNA 2: CCCAGCCTCACTCTGTGTTCGATGATTCCCAGTGGCATGATCTTACTC
B2: WIZ WT DNA target (dsDNA)
DNA 1: GAGTCTCACTCACGCGCCATTCCATTCCATTCAGATACTAGTACGGTCAG
DNA 2: CTGACCGTACTAGTATCTGAATGGAATGGAATGGCGCGTGAGTGAGACTC

Tests used:
Experiment in all cases: EMSA; 20 mM HEPES-KOH pH 7.9, 20% glycerol, 0.2 mM EDTA, 0.1 M KCl, 0.5 mM PMSF, 1 mM DTT, 5 mM MgCl2, 1.25 ug/ul BSA, 0.2 nM DNA, 2 h at 4 C; 7.5% PAGE in TBE
Settings in all cases: protein: recombinant; tags: GST; label: 5'-32P; blunt
GST-ZNF644N300 = target: T1, GST-ZNF644N300 (human, UniProt Q9H582 1-300)
T1 sequence: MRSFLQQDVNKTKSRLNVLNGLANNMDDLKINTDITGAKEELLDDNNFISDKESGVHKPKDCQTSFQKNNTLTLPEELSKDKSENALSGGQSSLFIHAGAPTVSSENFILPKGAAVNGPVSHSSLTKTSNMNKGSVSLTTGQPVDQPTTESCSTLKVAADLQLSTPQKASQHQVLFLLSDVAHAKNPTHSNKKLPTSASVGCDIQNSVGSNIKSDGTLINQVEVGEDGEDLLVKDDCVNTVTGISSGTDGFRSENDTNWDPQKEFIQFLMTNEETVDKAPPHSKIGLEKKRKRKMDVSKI

GST-ZNF644 = target: T2, GST-ZNF644 (human, UniProt Q9H582 1-1327)
T2 sequence: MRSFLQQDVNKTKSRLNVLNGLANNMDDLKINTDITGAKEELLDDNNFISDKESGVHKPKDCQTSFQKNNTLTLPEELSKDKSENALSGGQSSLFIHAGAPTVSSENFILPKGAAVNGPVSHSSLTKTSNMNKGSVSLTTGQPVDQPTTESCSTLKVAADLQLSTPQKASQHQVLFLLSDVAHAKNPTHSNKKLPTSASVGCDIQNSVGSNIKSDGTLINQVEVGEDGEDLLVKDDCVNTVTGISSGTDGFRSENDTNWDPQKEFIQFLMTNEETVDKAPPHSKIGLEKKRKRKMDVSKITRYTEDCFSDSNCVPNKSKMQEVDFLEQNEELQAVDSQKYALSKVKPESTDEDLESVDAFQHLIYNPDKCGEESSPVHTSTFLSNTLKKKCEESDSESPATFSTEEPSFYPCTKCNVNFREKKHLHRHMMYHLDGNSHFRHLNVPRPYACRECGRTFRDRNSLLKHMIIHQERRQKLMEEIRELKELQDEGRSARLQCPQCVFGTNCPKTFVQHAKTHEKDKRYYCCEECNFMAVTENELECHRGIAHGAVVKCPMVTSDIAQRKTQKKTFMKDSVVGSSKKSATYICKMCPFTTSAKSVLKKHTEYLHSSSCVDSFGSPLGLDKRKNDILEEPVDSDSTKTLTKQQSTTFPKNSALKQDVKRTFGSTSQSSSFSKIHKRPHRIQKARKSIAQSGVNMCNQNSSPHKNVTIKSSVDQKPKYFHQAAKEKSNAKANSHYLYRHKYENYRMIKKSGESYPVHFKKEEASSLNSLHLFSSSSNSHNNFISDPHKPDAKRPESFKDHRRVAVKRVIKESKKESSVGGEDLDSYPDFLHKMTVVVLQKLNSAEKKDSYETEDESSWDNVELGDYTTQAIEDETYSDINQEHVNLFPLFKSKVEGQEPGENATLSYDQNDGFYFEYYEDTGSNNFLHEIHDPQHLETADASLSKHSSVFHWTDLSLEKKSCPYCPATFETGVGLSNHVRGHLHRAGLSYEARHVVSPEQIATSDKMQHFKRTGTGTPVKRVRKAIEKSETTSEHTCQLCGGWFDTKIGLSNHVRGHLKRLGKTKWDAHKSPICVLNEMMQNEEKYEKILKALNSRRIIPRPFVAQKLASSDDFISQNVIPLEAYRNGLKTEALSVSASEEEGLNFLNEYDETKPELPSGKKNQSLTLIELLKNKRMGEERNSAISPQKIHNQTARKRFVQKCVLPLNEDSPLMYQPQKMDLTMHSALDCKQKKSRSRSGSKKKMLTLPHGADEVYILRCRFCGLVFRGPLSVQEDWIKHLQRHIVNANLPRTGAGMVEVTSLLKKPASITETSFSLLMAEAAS

GST-WIZN200 = target: T3, GST-WIZN200 (human, UniProt O95785 1-200)
T3 sequence: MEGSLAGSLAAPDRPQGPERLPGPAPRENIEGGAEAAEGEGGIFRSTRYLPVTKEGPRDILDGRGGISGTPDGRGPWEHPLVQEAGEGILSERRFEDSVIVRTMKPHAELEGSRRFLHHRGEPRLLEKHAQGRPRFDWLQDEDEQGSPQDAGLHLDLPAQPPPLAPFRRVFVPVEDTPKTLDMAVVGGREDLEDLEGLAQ

GST-WIZ = GST-WIZ (human, UniProt O95785 1-1651)

Binder	binding result (GST-ZNF644N300)	binding result (GST-ZNF644)	binding result (GST-WIZN200)	binding result (GST-WIZ)
B1	no binding	binds		
B2			no binding	binds
